Laboratory results: article PMC8008353 (The Journal of Biological Chemistry, 2005)

B1: NF2 (N protein fragment, residues 211-422) (domain or fragment)
chain: MASGGGETALALLLLDRLNQLESKVSGKGQQQQGQTVTKKSAAEASKKPRQKRTATKQYNVTQAFGRRGPEQTQGNFGDQDLIRQGTDYKHWPQIAQFAPSASAFFGMSRIGMEVTPSGTWLTYHGAIKLDDKDPQFKDNVILLNKHIDAYKTFPPTEPKKDKKKKTDEAQPLPQRQKKQPTVTLLPAADMDDFSRQLQNSMSGASADSTQA
B2: NF4 (N protein fragment, residues 285-422) (domain or fragment)
chain: GNFGDQDLIRQGTDYKHWPQIAQFAPSASAFFGMSRIGMEVTPSGTWLTYHGAIKLDDKDPQFKDNVILLNKHIDAYKTFPPTEPKKDKKKKTDEAQPLPQRQKKQPTVTLLPAADMDDFSRQLQNSMSGASADSTQA

Molecular target: the molecule itself
Test: AUC

Protein	stoichiometry N
B1	2
B2	2
